B1: ClpS adaptor (natural protein, E. coli)
chain: MGKTNDWLDFDQLAEEKVRDALKPPSMYKVILVNDDYTPMEFVIDVLQKFFSYDVERATQLMLAVHYQGKAICGVFTAEVAETKVAMVNKYARENEHPLLCTLEKA
notes: ClpS, E. coli, ~10 kDa; N-terminal extension (NTE) res; 2–26 and core domain res; 27–106; The NTE (res. 2–26) and the core (res. 27–106) are both spoken of, so the whole protein is likely; also called native ClpS; source: E. coli BL21(DE3), purified as described for His6-SUMO-fusion proteins
B2: ClpA (laboratory 'wild-type' ClpA carrying M169T), hexamer (enzyme, E. coli, UniProt P0ABH9 1-758, looked up)
chain: MLNQELELSLNMAFARAREHRHEFMTVEHLLLALLSNPSAREALEACSVDLVALRQELEAFIEQTTPVLPASEEERDTQPTLSFQRVLQRAVFHVQSSGRNEVTGANVLVAIFSEQESQAAYLLRKHEVSRLDVVNFISHGTRKDEPTQSSDPGSQPNSEEQAGGEERTENFTTNLNQLARVGGIDPLIGREKELERAIQVLCRRRKNNPLLVGESGVGKTAIAEGLAWRIVQGDVPEVMADCTIYSLDIGSLLAGTKYRGDFEKRFKALLKQLEQDTNSILFIDEIHTIIGAGAASGGQVDAANLIKPLLSSGKIRVIGSTTYQEFSNIFEKDRALARRFQKIDITEPSIEETVQIINGLKPKYEAHHDVRYTAKAVRAAVELAVKYINDRHLPDKAIDVIDEAGARARLMPVSKRKKTVNVADIESVVARIARIPEKSVSQSDRDTLKNLGDRLKMLVFGQDKAIEALTEAIKMARAGLGHEHKPVGSFLFAGPTGVGKTEVTVQLSKALGIELLRFDMSEYMERHTVSRLIGAPPGYVGFDQGGLLTDAVIKHPHAVLLLDEIEKAHPDVFNILLQVMDNGTLTDNNGRKADFRNVVLVMTTNAGVRETERKSIGLIHQDNSTDAMEEIKKIFTPEFRNRLDNIIWFDHLSTDVIHQVVDKFIVELQVQLDQKGVSLEVSQEARNWLAEKGYDRAMGARPMARVIQDNLKKPLANELLFGSLVDGGQVTVALDKEKNELTYGFQSAQKHKAEAAH
notes: ClpA, E. coli, AAA+ unfoldase with D1 and D2 modules; full-length with the M169T substitution that helps overexpression; also called ClpA6; WTClpA
B3: ClpP-His6, 14-mer (enzyme)
chain: not shown
notes: ClpP peptidase, E. coli; The atomic models hold one heptameric ClpP ring; also called ClpP14; ClpP7 ring; copies: 14
B4: LLYVQRDSKEC-fluorescein N-degron synthetic peptide (peptide)
peptide: LLYVQRDSKEC-fluorescein
modifications: not fully specified (residue 11); printed as LLYVQRDSKEC-fluorescein
notes: synthetic N-degron peptide, molecular weight 1779.9 g/mol; also called fluorescein-labeled N-degron peptide; N-degron peptide; source: synthetic peptide (21st Century Biochemicals)

Ends that are not written are not given here.

Series [1] deals with B2. The series is described as follows: cryo-EM structure; ClpA6 (4 µM), ClpP14 (8 µM), ClpS (13 µM) and YLFVQELA-GFP (13 µM) mixed in assembly buffer (50 mM HEPES-KOH pH 7.5, 300 mM KCl, 5 mM MgCl2, 2 mM TCEP, 4% glycerol, 2 mM ATPγS), 5 min at 25 °C; largest complex from Superdex-200 taken for single-particle cryo-EM. The settings on record: both partners purified.
Series [2] deals with the molecule itself. The series is described as above.
The series “ClpP-His6, 14-mer” has as its target B3. The series is described as above. The settings on record: both partners purified.
The series “ClpS adaptor” has as its target B1. The series is described as follows: fluorescence polarisation; fluorescence anisotropy at equilibrium; ClpS alone (1.25–30 µM) titrated against 100 nM …-fluorescein; 30 °C, HO buffer, 2 mM ATPγS. The settings on record: both partners purified. (In fluorescence polarisation assays a small probe gives low polarisation when free and higher when bound to something large.)

As for B1, in series [1], the binding result was “binds”.
The stoichiometry N is the number of molecules, sites or subunits per partner or assembly. As for B2, the “stoichiometry N” value in series [2] was 6; with ClpP-His6, 14-mer it was 2 ClpA hexamers per ClpP 14-mer.
Turning to B3, in series [1], the binding result is recorded as “binds”. In series [2], the “stoichiometry N” value was determined as 14.
For B4, the binding result with ClpS adaptor is listed as “binds”.

For the origin of these results see PMC9663308, “AAA+ protease-adaptor structures reveal altered conformations and ring specialization” (Nature Structural & Molecular Biology, 2022).
